# Experimental data as given in patent publication US20210340246A1 (GlaxoSmithKline, published 2021).
# Target: T1, human IL-5 (human, UniProt P05113 20-134)
# T1 construct: The IL-5 reagent of the SPR assay is not described further; also called interleukin-5; soluble IL-5
# Assay: standard surface plasmon resonance assays
binder,measurement,value
"mepolizumab (monoclonal anti-IL-5 antibody; unstressed composition / control samples) (antibody, human IgG1, kappa, N-terminal Gln cyclised to pyroglutamate (typically >95.0%); C-terminal K449 clipped (typically >98.0%); N299 N-glycosylated, Batches MDS1 T04L003S and MDS2 T0413010; also called Oxidation Control; Light Exposure Control) heavy: not shown light: not shown",Kd,< 0.0229 nM
